In the DeepSol protein solubility set:

Test: soluble on expression in E. coli; label from the status in PepcDB or PDB records

Sequence	soluble on expression in E. coli
MQKVCEKRIDSVVASAVEGSGMFYAVRFEPPPSKTCFDVTLKTYGPPYTEYIVTVAIPPKFPFSPPAITCKTDKNMKFLFLEENQWKPSTGIVAVLIEACSVISRRDLVPRAPVLPRIRPPQARTPTSASPAKSPQKAD	not soluble
GPGSMFILADQLALPLPRSPLFFDVFDFSLEHTAMSQEAGCDTKGGGSTVTSVTAGTSGKHEETPVVTEDSSFVYACRLCRRILFTHEEIMPHSADSSSKGPKAFGRRGAPKQQSDQQNAGVCTSYFLNPDVSIWVAAESREAHCESGGTSVLPDTVYCPNNSCSAKIGTQSWVGSQCSCGVWVTPAFKIHGRAVDKLQSQ	not soluble
MYLLEINVFEGLNKKELSMIEVAHAILEQHADVMDFSDLVNQIQNYLGKSDSEIRDQLAQFYTDLNIDGSFISLGDNRWGLRSWYPIDSIDEEVTHGLEEDEEDAPRRRKRKKVNAFITNPNDEDVIDYNDDDPEDAELTNDDEEDILYDDEEDEDEEIKAYNSDLQEIGADSDDDEEDIPQIEEDLTIIDDDDVEDEDDFDDEYSEE	not soluble
MSLSFFFQSATVSDGELTGADLKDCISNNSLSSNASLPSVQSCRRLRERRVASWAVSFERLLQDPVGVRYFSDFLRKEFSEENILFWQACECFSHVPAHDKKELSYRAREIFSKFLCSKATTPVNIDSQAQLADDILNAPHPDMFKEQQLQIFNLMKFDSYTRFLKSQLYQECVLAEVEGRTLPDSQQVPSSPASKHSISSDHSNVSTPKKLSGKSKSGRSLNEDVGEEDSEKKRRGAFFSWSRSRSTGRSQKKKDHGDHAHDAPHANGGLCRRESQGSVSSAGSLDLSEACRTSALEKDKAAKHCCVHLPDGTSCVVAVKSGFSIKEILSGLCERHGINGAAVDLFLVGGDKPLVLHQDSSILATRDLRLEKRTLFRLDLVPINRSVGLKAKPTKPVTEVLRPVVAKYGLDLGSLLVRLSGEKEPLDLGAPISSLDGQRVILEERDPSRGKVSTDKQKGAPVKQNSAVNSSPRNHLAMGEERTLGKSNSIKIRGENGKSARDPRLSKREESIAKIGKKEYQKINLDEAEEFFELISKAQSNRADDQRGLLRKEDLVLPEFLRLPAGSSELALSSPPPVKGYSKRAVTGHGQEGAAQTEESYSDSPATSPASAQSPCSAYSPGSAHSPGSAHSTPGPPGTTQPGEKPTKPSCVSMVQEGTTQAWRRLSPGMEAGGIQTVEDEQVADLTLMGEGDISSPNSTLLPPPPTPQDTPGPPRPGTSRF	soluble
GKLKKKGYLRIVTTQGSLNIELHADMAPRACDSFLRLCAVKYFDDTIFHRCIRNFMIQGGRAELRQPSKKKEVQQSPRSISGFPGGAPFEDEFDNRLVHQGIGVLSMANDGKHSNLSEFFITFKSCEHLNNKHTIFGRVVGGLDVLRQWEKLETDKKDKPLKPPKVEEIIVFKNPFEDARKEMEDEKREEEEKEKKKLENA	soluble
MGSDKIHHHHHHMKDNPISPTIPLDQDGVHHGFLKLPYSRDDSAWGSVMIPITVIQNGAGKTALLTGANHGDEYEGPVALQELAATTRAEDVTGRLIIVPYFNYPAFRASARTSPIDRGNLNRAFPGRPDGTVTQKIADYFQRTLLPMADVAVDFHSGGKTLDFVPFAAAHILEDKVLQDACFAAMQAFNAPYSVQLLEIDSEGMYDTAVEEMGKVLVTTELGGGGMSTARSNAIAKKGLRNVLIHFGILQGEMQIDPSVTLDMPDGDCYLFSEHDGLFEIMIDLGEPVQEGDLVARVWSPDRTGEAPVEYRARRSGVLISRHFPGMIKSGDCAAVIGVVEG	not soluble
MAHHHHHHMSSSDGQGMRAVILVGGFGTRLRPLTLTTPKPLVPFCNKPMIIHQIEALKAVGVTEVILAVAYRPEAMKEQMDEWSRKLGVLFVFSVEEEPLGTAGPLALARDILMQDDKPFFVLNSDVTCPFPMQELLDFHKAHGGEGTIMVSQVTQWEKYGVVVYSPQNYQIERFVEKPSSFLGDRINAGIYIFNKSILDRIPPCRTSIEKEIFPSMAAEGQLYAFNLEGFWMDIGQPKDYILGMTKYIPFLVHSNRETEKLHTEATKHQRGGRFTVIGASLIDPSAKIGDGAVIGPYASIGANCVIGESCRIDNAAILENSKVGKGSMVSRSIVGWNNRIGSWCHIKDISVLGDDVEVEDGVVLIGTKVLPNKDVGEHHFEPGIIM	soluble
MSSLWLDQARGSEPACPALQGATRADVCIVGGGYTGLWTALQLREQSPGLDIVLLEAQECGAGASGRNGGFMLSWAAKFETLLKVCGTDEALRLLGESERIAADVAGYLKRHGVDAQLRQDGWLWTASNAAQVDSWMPCIELLARHGQQAFVALPADEVRRLSGSAAHLAGVLSRSSATVHPGMYVRGLRRIALAKGIRIYEHTPMRSLRARPQPTVATARGEVRAAKVVLAMNAWSTRFRELNKGVVVVGSDLVATAPHPEALEKIGLTSGVAISDSRLFTNYYRNTCAGEMVFGRGGGDFAFNGAVGRLYEGPSRFAREVAAILHRFYPALAPLGIVRSWSGPIDRSMDGLPCFGHLGGHPDIVYGYGYSGNGVGPTYLGGKFLASMVLENDDAWRHSALARGLRGRFPPEPFRYVGSRVVKAALVRKEAAEDQGQAPARLDTMLAGLAPGGLVPVARKEKALEHHHHHH	not soluble
MSLVAMITTVVGSYPVVKKEETFLDKVKKVFGLYDEYKYAIERAVKDQVKAGVNIISDGQVRGDMVEIFTNNMYGFDGKRVVGRVEFIKPITLKDILYAKSIAKKLNPNVEIKGIITGPCTIASSVRVESCYSDNRDENLIYDIAKALRKEVEALKKHVPIIQIDEPILSTGMYDFDVARKAIDIIVDGLNIKFAMHVCGNVYNIIDELNKFNVDILDHEFASNKKNLVILESMEKKVGFGCVNTKVKKVESVEEIKSLIEEGIEILKNNEKLNKNLSDNILIDPDCGMRLLPIDVAFNKLKNMVEATKLIEGHHHHHH	soluble
MSLTDQKPVPVFDGHNDVLLRLWRSGNTSPETLLIEGDTVGHIDLPRARKGGLAGGLCAIYVPSPSMEKDANGDFSTPTEADALKATLGMAALLFRAEKQSAGALKVCRTAADIRSAMAEGAFASVFHIEGAEAIGDDLDALHVLHEAGLRTLGPVWSRPNIFAYGVPFRFPSTPDIGPGLTDTGKRLVKTCNELKIMVDLSHMNEQGFWDIAKISDAPLVASHSNAYALCNHSRNLTEGHHHHHH	soluble
MSEQPASLDPVSKQIIEQLQEDGRRSYSAIGKVVGLSEAAVRQRVQKLIDTGVTQIVAVTDPVQVGFSRQAMVGIRCSGDVTEIAARLADVDAIDYVVLTAGAYDILAEIVCENDDHLLAVLNKEIRTIPGVLGTETMVYLKLVKQQYDWGTR	not soluble
MSLKAVQQHAFGGPEVLSYEDAPMPVLQAGEVLVQVYAVGVNPPDSYLRDGYQQLPPEWRPEVRFPLILGTDLSGVVVARADDVREVAVGDEVYAMARFPEGAAGGSRAYAEYVSVPVSDLARKPLTLSHQQAAAVPMSLLTAWQFMIDPGHEVANPLQPGPHRPVPLAGKRVLVNGAAGGVGHFAVQLAKWQGAEVIAVAAGCHEAFLRQLGADSVIDYTTTAVEETVRDLDLVIDAPGGPASGRFLRTLRPGGALYPIFPLGFAGAEEARQRGVTVSTTQVRSSGAQLARLADLLDAGVIRVAIDSVFPLAQAQMAHERAAQGHLEGKIVLSVMDSEGHHHHHH	soluble
MAHHHHHHMYDSRSSGVHDVAPRDGVDFMYEGPQQVLPGAHPLPLFHPDNSVTRPPVSPYLPSPQRPHPYFTTELPELPHFQTTRPIVYTVGTMKQRIVAPVFDLANNVTHTRELDPFIFGFYPETEEMAKNLSYWLVRCQNFSSKWDYENREIWRKAKKNWPNTGMGMARVGDRKNHAHPWGAHSKPVKPWNLLMPTMDVKTWSKSNRMLVTLKMLQGKLQIVERLTLPEPTQEAYLQLCRTMGWDVRHKGGGALFMDGGSRLTPSSEYDRAFFFGSFFNGRNKLVRPTLLCDEPYDYNRTSSKARTKGPKGQKNPIPINRFNAYDALTHDTLIITEGALLQLEDEMYTHKLAMLPPHIRAQLPERGFLDSEVLGDVPPALQTVQMEAAARTEEAEQAMYAPYYDNPYHPWQDEGEASYAVDAVEGTVQRYIKSRKTSWAMLS	not soluble
MSTVLGTFKRMNEGWTQWPSYGHAFGVRLHKLRRLRGLTQDGLAEIANLSRNQISNLERNENSATKSSDPTMSTIYRLARALHVPPAALMPAVGDYVTDICQDTGHELPIDIAWPTSSQDTQKFSIQYRYRYWDEQSPLFDDEDWDDDHADDPDFGIAVMPETSDNNDADTTKGGDDTEDRGDVDKRDDDPLA	not soluble
MSLKSIAQEHDCLLIDLDGTVFCGRQPTGGAVQSLSQVRSRKLFVTNNASRSADEVAAHLCELGFTATGEDVVTSAQSAAHLLAGQLAPGARVLIVGTEALANEVAAVGLRPVRRFEDRPDAVVQGLSMTTGWSDLAEAALAIRAGALWVAANVDPTLPTERGLLPGNGSMVAALRTATGMDPRVAGKPAPALMTEAVARGDFRAALVVGDRLDTDIEGANAAGLPSLMVLTGVNSAWDAVYAEPVRRPTYIGHDLRSLHQDSKLLAVAPQPGWQIDVGGGAVTVCANGDVDDLEFIDDGLSIVRAVASAVWEARAADLHQRPLRIEAGDERARAALQRWSLMRSDHPVTSVGTQEGHHHHHH	not soluble
MAHHHHHHMGTLEAQTQGPGSMENKEKIYEGKAKIIFATLNPLEVIQHFKDEITAFNNKKAAIIHEKGILNNYISSFLMKKLIDKGIKTHFISLLNQREQLVKKITIIPIEVVIRNLAAGNFSKRFQIADGTPFKSPIIEFYYKNDELSDPMVSEGHILSFQWLTNQELEKIKILSLKINNILSELFFNVGIKLVDFKLEFGKLHNDEQSDLFLADEISPDTCRLWDISTNKRLDKDRYRLNLGNVIEGYREVAHKLNAIPNL	soluble
MSLSIALIAPYESLATLCRSICQELDLDVSVHTGSMEDGVRIARNLMAEGVDFFISRGLTAQLIREQCPLPVAELEVSAFDIYLCLEPLLRSGKSIGVVGHSDILRKAKGASAALGFTIDFYATAHPGGMGHIMEAARRQGIAAIAGDAVAARTAERYGMEGVLVQNGADSVTNTLQYAVATYSYLTRQATMAGEGHHHHHH	not soluble
MTILEELNDSSIPQRLDNHIFFGSVHSLTHTDFLVENNIRFFINVDLSTELISHIYHEVRSKFAHEIVIVNIDNDSQIPIESDLVRSFHWHNTSLLQQLIHHLDFLSGINNHGEPLTPPPESHYRNAYVQFDHPSDSVSILDKLLYGNKSEYSRTNIFQVTNEAKFQVFNDLITIFKYSIAQGGNTNSNILVLSENGSTDENLISLLMSTVLKENPTFNVYQALQFVKSIAVIPDTVRDEKILWVTGFINYQELIKKNEMYWGLGSQKGRKLTSFASPISKVERKQRRRDDQNIMRSKLPQQRQNPFCSTERPKRARCD	not soluble
MGHHHHHHSHMAAAIASSLIRQKRQAREREKSNACKCVSSPSKGKTSCDKNKLNVFSRVKLFGSKKRRRRRPEPQLKGIVTKLYSRQGYHLQLQADGTIDGTKDEDSTYTLFNLIPVGLRVVAIQGVQTKLYLAMNSEGYLYTSELFTPECKFKESVFENYYVTYSSMIYRQQQSGRGWYLGLNKEGEIMKGNHVKKNKPAAHFLPKPLKVAMYKEPSLHDLTEFSRSGSGTPTKSRSVSGVLNGGKSMSHNEST	soluble
MGAMESLRWMEARLPEILKDLEAFVRRESPSGDLEGLEAAARFLEEAFGPLEGRLSRKDTPAGPVLLLKREGEGAPVLLLCHYDTVHPKGSFPEPFRLEREKAIGPGVYDMKGGIIALLYALRYAEATGRRLPALEVLFTPDEEVGSPESRPLIEAAAKKARAVLVLEPPTAEGHLKVARKGVGLYRLRAIGKAAHQGVEPEKGVNAILELAHQVLKVAALEDREKGTTLGPNRIRGGTATNVVAEEAEVEIDLRAWTLEEVQRVEEGLKALKPVLPGARLVLSGGLNRPPMEPTEASLALFAKARAIGEALGLRLEPGRVGGGSDGNFTAALGVPTLDGLGLFGGNAHQKTEYVVVPEIPRRTALLAELLAAL	soluble
